Earlier results, collected in paper PMC3962485.
pKd: −log10 of the molar value.

Molecular target: Hsc70 (UniProt P11142)
Chain of UniProt P11142 (P11142 2-646): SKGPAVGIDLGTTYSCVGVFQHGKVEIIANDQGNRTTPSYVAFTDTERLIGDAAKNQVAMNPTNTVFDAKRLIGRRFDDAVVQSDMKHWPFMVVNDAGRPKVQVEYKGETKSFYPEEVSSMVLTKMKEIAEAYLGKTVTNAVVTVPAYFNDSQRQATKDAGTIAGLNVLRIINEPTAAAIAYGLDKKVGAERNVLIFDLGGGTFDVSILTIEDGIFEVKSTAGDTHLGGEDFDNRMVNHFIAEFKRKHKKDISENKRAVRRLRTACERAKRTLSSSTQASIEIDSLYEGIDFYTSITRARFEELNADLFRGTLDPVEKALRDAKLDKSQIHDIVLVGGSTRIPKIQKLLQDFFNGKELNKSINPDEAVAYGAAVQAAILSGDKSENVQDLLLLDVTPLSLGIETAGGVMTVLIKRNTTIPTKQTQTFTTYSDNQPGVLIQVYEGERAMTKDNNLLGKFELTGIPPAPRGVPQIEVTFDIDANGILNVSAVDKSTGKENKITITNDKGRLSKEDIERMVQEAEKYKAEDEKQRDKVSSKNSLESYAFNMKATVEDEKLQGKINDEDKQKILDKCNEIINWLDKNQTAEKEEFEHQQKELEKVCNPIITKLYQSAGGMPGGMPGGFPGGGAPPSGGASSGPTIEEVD

## Snl1-M (from UniProt P40548)
  pKd: 5.30
